The target in test [1] is T1, recombinant toxic shock syndrome toxin-1 (TSST-1), mature protein with N-terminal His6-tag (Staphylococcus aureus), P06886.
T1 chain: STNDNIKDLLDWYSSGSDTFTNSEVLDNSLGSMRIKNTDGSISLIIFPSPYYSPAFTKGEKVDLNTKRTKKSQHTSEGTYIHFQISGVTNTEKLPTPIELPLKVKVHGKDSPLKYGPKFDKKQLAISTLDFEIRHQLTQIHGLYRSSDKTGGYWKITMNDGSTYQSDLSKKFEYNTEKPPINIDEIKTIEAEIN

The target in test [2] is T2, recombinant staphylococcal enterotoxin B (SEB), mature protein with N-terminal His6-tag (Staphylococcus aureus COL), P01552.
T2 chain: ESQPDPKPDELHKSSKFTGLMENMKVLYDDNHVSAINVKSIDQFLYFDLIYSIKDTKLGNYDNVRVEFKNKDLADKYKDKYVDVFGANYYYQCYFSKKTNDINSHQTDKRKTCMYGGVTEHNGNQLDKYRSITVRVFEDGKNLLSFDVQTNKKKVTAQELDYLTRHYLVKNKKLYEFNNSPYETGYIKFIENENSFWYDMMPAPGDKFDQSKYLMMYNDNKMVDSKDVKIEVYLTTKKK

B1: pB2-6, immobilized for Surface Plasmon Resonance (peptide)
peptide: DSDSWTLR
modifications: not checked
With B1, in test [1], the dissociation constant Kd came to 1.2 µM, the koff stood at 0.00304 s⁻¹ and the kon is 2530 M⁻¹ s⁻¹. Also, in test [2], the Kd turned out to be 3.9 µM, the koff stood at 0.0019 s⁻¹ and the kon was found to be 491 M⁻¹ s⁻¹.

Broadly, the Kd is the constant that tells how readily two partners part at equilibrium. As a reminder, the koff is a measure of how fast the partners let go of each other. As a reminder, the kon is the second-order rate constant of association.

(Values after US20200148741A1.)
